The record followed here is paper PMC11710176 (Alzheimer's & Dementia, 2024).

Where “and” joins values, the source holds several entries; their conditions need not be identical. Equal entries are not always repeated.

This test deals with tau oligomers (UniProt P10636 1-758). Briefly: SPR; who was immobilised and the conditions not given. To be noted: both partners purified.

What is called Kd is the equilibrium constant for the complex coming apart.

B1: cellular prion protein (natural protein)
chain: not shown
notes: also called PrP^C; PrPC
In the case of B1, the Kd was 20 nM and 50 nM.
